Data on four molecules can be found in patent US20120309696A1 (UNIVERSITY OF DENVER, published 2012).

The target of assay [1] is T1, human melanocortin 2 receptor (hMC2R), V-5 epitope tagged, expressed on CHO cells co-transfected with mouse … (human, UniProt Q01718 1-297). As to the kind of experiment: cell-based or functional assay.
Assay [2] has as its target T1, human melanocortin 2 receptor (hMC2R), …. As to the kind of experiment: cell-based or functional assay. The source holds these as a separate data set.

T1 sequence (Q01718 whole entry): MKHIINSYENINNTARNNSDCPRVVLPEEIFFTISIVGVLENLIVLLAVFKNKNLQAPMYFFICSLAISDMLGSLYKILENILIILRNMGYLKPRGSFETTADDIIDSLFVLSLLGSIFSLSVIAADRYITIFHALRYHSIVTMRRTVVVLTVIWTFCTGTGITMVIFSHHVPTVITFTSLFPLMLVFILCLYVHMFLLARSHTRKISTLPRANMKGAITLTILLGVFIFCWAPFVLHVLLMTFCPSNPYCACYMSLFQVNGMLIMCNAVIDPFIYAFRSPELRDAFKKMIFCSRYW

B1: ACTH analog SYSMEHFRWGKPVGAARRPVKVYP (peptide)
peptide: SYSMEHFRWGKPVGAARRPVKVYP
For the molecule B1, the “fold decrease in MC2R activation relative to full-length ACTH (cAMP production in transfected CHO cells)” value in assay [1] worked out at 100 fold.

B2: ACTH analog SYSMEHFRWGKPVGKKAAAVKVYP (peptide)
peptide: SYSMEHFRWGKPVGKKAAAVKVYP
Turning to B2, the “fold decrease in MC2R activation relative to full-length ACTH (cAMP production in transfected CHO cells)” value in assay [1] came to 100 fold.

B3: ACTH analog SYSMEHFRWGKPVGAAAAAVKVYP (peptide)
peptide: SYSMEHFRWGKPVGAAAAAVKVYP
Take B3: the “fold decrease in potency in cAMP production against ACTH(1-24)” value in assay [2] worked out at 1000 fold.

B4: ACTH analog SYSMEHFRWAAAAAKKRRPVKVYP (peptide)
peptide: SYSMEHFRWAAAAAKKRRPVKVYP
As to B4, the “fold decrease in MC2R activation relative to full-length ACTH (cAMP production in transfected CHO cells)” value in assay [1] was 400 fold.
